From the DeepSol protein solubility set

Assay: soluble on expression in E. coli; label from the status in PepcDB or PDB records

Soluble on expression in E. coli, soluble:
GEEKKDSKAFIDVSAATLWTAPDSLRPIDVPSATNPVDLWKWTKSMTLDEKLWLTNANKLETQALLGQEVTVVDKKGDWVKVLVHGQPTPRNEEGYPGWMPEKQLTYNQEFADKTNEPFVLVTKPTAILYINPSEKHKSLEVSYNTRLPLLSEDTISYRVLLPNGQKAWLRKNDGTFYRSQNDIPTPAADDLINTGKMFLGLPYIWAGTSGFGFDCSGFTHTIYKSHGITIPRDSGPQSRNGVAVDKEHLQKGDLIFFAHDQGKGSVHHVAMYIGDGNMIHSPRAERSVEIIPLNTPGYIEEYAGARRYLP, MSLKAFLPLLFSFFFIISCQQHKEATISPIDEEDELQEEADSLPRATAIFWLDKYHMKELKKDDVLTFRTAKAKVVIRNDGTIDLLSFVEQQPGNAQRYIRYRLKDFKVKKILMDNGYINPGEQYVQLRYIPALARRVKEGHHHHHH, MGNFTFEEMNLMCIYNTGSRTGLIDSLREMRGELSPEETELRELTDSALTKLCAMTDEDFAQLELYPDFDQLEHHHHHH, MGHHHHHHSHMARATTKQDLIMASNGQFEKLWVLIDGMSDDLQNATFADQMATAGKEAHWGRDKNLRDVLVHLYEWHQLLLNWINSNSKGERKPFLPEPYNWKTYSVMNVEFWKKHQQTPLAEAKDKLKESHRQVMALIETFSNDELFAKGVFDWTDTSTLGAYCVSATSSHYDWAMKKIKLHIKTGK

Soluble on expression in E. coli, not soluble:
MGSDKIHHHHHHMGLSTSTKTFAERLEESKKDQFAKAAVAKAQDAQWEKRESARDELGNWQEWRDIAESIRQHTLKYLPHYLTEFSDNVAARGGHVFFAADAKEANDYVKRIVLEKNAKKIVKSKSMVTTEVDIDPMLVSLSDDMDILETDLAEFILQVADWDEPSHIVFPALHKNRDQIREIFAKKLGYEGDNNPVNLARCARDTMRKLFLKSEVGITGCNFAIANTGDINLSTNEGNADLTISIPKTQIVLMGMERIVPSIKEAEILDNMLARSAVGQKLTTYVTFAGQQADDESDGPEDFHVVIVDNGRSNAIGTAFEAVLQCIRCGACLNVCPVYRQIGGHAYGSIYPGPIGSVLSPVLGGYEQYGDLPYASTLCGACTETCPVKIPLHELLIEHRKVMEDDLSMHHDGSFVNFEMNTIGKGTSSPALFGMAINMAHTGLNMLPKAKEVSVEGSLFNYGAVRKAPALAKGWTDVRDLPIAPPHKEQFRQWYKKHKAGK, MAHHHHHHMSLQAGGVVNGVIPGVVPPHDRTQEVCKYFVNGGCLRGANCPYLHELPDERHLDVNGLGFILNPNVHNAQKTVASPQTQVAASTPSQPLKASGSSFTMMLNNQNASQSRVFSPTKAAKHQPPSMSGSSSASPQTMQMGKLPAPPKYNPPEPYLELNLPPALAFPLKVPAKDTTATLTHLMLQN, MKINLEELKFGTELIKRGFAKMQKGGVIMDVTNAEQAAIAEEAGAVAVMALHKVPADIRAAGGVARMADPKKIQEIIDAVTIPVMAKCRIGHIAEARALEALGVDMIDESEVLTPADVFFHIDKRKFVVPFVCGARSLGEAVRRIWEGAAMIRTKGEAGTGNVVEAVKHMRLINRAIFELQKMNEERIYGVAEKYASRYAELASRVREEMGLESVSRNDVVFEEYTLGEIIDGIYEILLEIRELGRLPVVNFAAGGVATPADAALMMQLGADGVFVGSGIFKSSNPPEYAKAIVEAVQHYDEPEVVAEVSKGLGEAMKGLDVFKLSEDERLQTRGL, MGSDKIHHHHHHMLEVIDVWKKYPPKTQALREVSFEAEEGSITAVFGENGSGKTTLLKVIASFLIPDRGKVLIDSVNIVEKPSFAVEKVSISTGYERSFYYRLSVEENLKFFGMLNDLLGKTLKRETERVMKELGLLECRKKRYMELSTGYKKRVDVARALMKKASIYIFDEPCSGVDLRTRLKIHEIMKRLKESGRIVIFASHDLEDLKIADRVIVLKKGEKVLEFSPKKEDLAAVLRGILEIQAFPGD, MDLQTSSKFLQNQLAHLFQCERDSADVENSEGCFSTGNDPAFKDERLRFEFHTEPFNRRYLLRVVKVPP, MGSDKIHHHHHHMSFGVNRDESSAFCQRAFEAENWRLAASAGLAPTLVAQSIDGRCYLSPLLEDGGWQQRYQEVPLSQITCDAAFFTSPGQTHAGSDREPDGLTHTTRLLLDLLLGLQALPVPANVKGFTTQWQDYETALDASQSHWARNPRWQEAYQALAAEFTEVEAAMARLDAMGLSCQYSHRDLTPHNLLCHQGKLFCIDFEYACASHPLWDLAAVLASHNLPGRERRDLMDAYLYAHPQLESSMSSRVVDAVALHWYFGAIWALLMAGQSGDDDYLCWFHRYLQLAKS, MAHHHHHHMGYTRERTNRHFFVARANAFFSRLPIARVQRSLAMEAVREGRMRPWKYTKEQILGAPVTCNFEYNPRPVRLIGTVMDAHTEETSIKGGLKVYARNEETNMMLWIPPGNPKLRHEVTSTKGSFQHYLDERDKWDEAWITGRARMK, MGSDKIHHHHHHMTSARRMLIDANTTPFYHVINRCVRRAFLCGEDKLTGRSYEHRRGWIVDKIKALSAIFCIDICAYAVMSNHYHLVLKIDVEKAKSLTQKDIISRWCQITKGHAIATKYMNGDALIEGERMLLDALIAEWHERLSSISWFMRCLNEEIARKANREDECKGAFWEGRFKSQALLDEQALLACMMYVDLNPIRAGIADSLQSSDFTSIQERMNSLNTHSIAPKLAKITVDNTLSIPHKSLAKFEGATHIHQQTGIPFHFADYLELIDWTGRAIRHDKKGFIDNLRPKLLNELGIASDAWLLSAKEFRRQYSGVSGRWDAMCAFKHKQGGKWCRGKSHSQALHPEQINGLTLR, MGSDKIHHHHHHMSDLPERLHDIIRRRNMVLGPGYQFSETIPVEFVSSFGAHLIDSDGNDYLDAFNNVQGVGHAHRHVADAVARQIAAINTDTRYPQEALVAYAERLLATFPAELSKLSLPCTGSEANDLAVRVARYHTGGEGIIVTRWAFHGRTREVASFSPMLGAGSPLGPNVRLIAAPDPRFCGPQQSLENYMRDQVRSAIVDLERHGYRLAALVADSAFTSDGIFTHPVGFLQAMVDEVHAAGGLHIADEVQSGFAQLGDSMWGFSRHGVVPDIVTMGKAIGNGFPISGVVFRPEVSDEFGQKVSYFNTLGGRSLSIAAASAVLDVFEQENVRERVAVNGAALQSGLETLARESPYVAEIRGSGLYLGVEIVKDRETLEPDPIRCESIIKDLRDRRVLISRTGSSGNVLKVRPPVAFTAADVSRFLETFAIVAKQRL, MASRRSNAKSRDKPDKYSVLLPTYNERENLPLIVWLLVKYFGESGYNYEIIVIDDGSPDGTLQIAEQLQKIYGADKILLRPRAEKLGLGTAYIHGIKHATGNFVIIMDADLSHHPKFIPQFIEKQKEGGYDLVSGTRYRGDGGVYGWDLRRKLISRGANFVTQVLLRPGASDLTGSFRLYKKEVLEKLVEQCVSKGYVFQMEMIVRARQLGYTIGEVPISFVDRVYGESKLGGNEIVSFLKGLLTLFATT, MGSDKIHHHHHHMNEDYQKTIEFHGHECPGVTIGYRVSKYVLDHYERSEDEQLVAIVENNSCSIDGIQQMLGCTFGKGNLKFKDNGKHVYTFYSRGNDKALRIYLKYNLAEKVGNFNKKFNEGTLTAEDEKQMFERRKEAIKHLMEAPEEELFDVQWVEIEEPKKARLYPSLTCENCGETFMEIKGRTIDGKIVCKECFQKLVH, MGSDKIHHHHHHMETLYLKTLIVTAEKGSFSKAAAELCITQSAVSQRVKFLEERYGCELLDRSGPVMMLTAAGEAVVRKAQAILDIEKTLQDELKKFTGRQRLSICCTPSFGIAHMPKVLNRFMLRNADIVDLKFMFYSPEQAVKGLAEREFDIGIIEHCEDLDLADFHTATLPRDELVFVSAPSLGIPTPLVTIERLFEERLITRKDGCSSKKLLRLNLASIGKDLEGFRSTVVYDDLHLTVDTVLDGGGVAFVSSCLVNKYLENGQLKQHRVEGFCHSRQRTVALSRSKVQDRLVSDFLACLDTVFTDQCHRSSCPT, MKLVLAVIQDADAAALMRALSEQHFEATKLASTGGFLREGNTTLMIGVDDQRLDTLRTLIGQTCRSRTRLVPARGLVSESEGGVAQEPVEVPVGGAVIFVLGVEDFVKV, MAHHHHHHMQQLEQELSLRQSAIETREQQLEMVQLDGARGREAIMRERHSIEEVRRTVRVERCRQRRLWIHQIKEMNAKVLEQVRLLAEERKKNCEQATAKEDAAERAFAADIKMIEEYLPKLISLEDIPVNPEETDIIRRQFDEVFTQGEQTYLASAEEEQARKERLGRGLEVYRQRMLDDYVGKENGKLHDAEATERHLSSVVDQVLN
